Data from patent publication US20230272117A1, “ANTI ABCC1 ANTIBODIES AND USES THEREOF” (Kenjockety Biotechnology, Inc., priority 2020, published 2023).

How the values were obtained:
CT26 tumor = assay: CT26 syngeneic mouse tumor model; assay type: in vivo; details: for effect of doxorubicin on the inhibition of tumor growth by the antibody: CT26, antibody 3 mg/kg + Doxorubicin 2 mg/kg; for tumor growth in vivo: CT26 in BALB/c mice, antibody 3 mg/kg intraperitoneally twice a week for two weeks
Procedure: Syngeneic models are allografts immortalized from mouse cancer cell lines, which are then grafted back into the same inbred immunocompetent mouse strain. CT26 is an N-nitroso-N-methylurethane-(NNMU) induced undifferentiated fibroblastic colon carcinoma cell line established from BALB/c mice with aggressive colon carcinoma. C26 cells were purchased from ATCC® (CRL-2638™) and maintained in RPMI-1640 medium supplemented with 10% FBS and 1% penicillin, 1% streptomycin at 37° C., 5% CO2. Cell lines used were authentic and confirmed to be mycoplasma negative. The cells are adherent with a fibroblast morphology and will form tumors and metastases post implantation into syngeneic BALB/c mice or immunocompromised mice.
1×10^6 cells diluted inPBS:Matrigel (1:1) were subcutaneously implanted using a 27G insulin syringe into anesthetized […] old female Balb/c mice under aseptic conditions. All animal maintenance, handling, surveillance, and animal procedures were performed in accordance with an approval from the APLAC protocol.
Once tumors reached 100-150 mm^3, mice were randomized into 6 groups of five mice each: • 1. Control isotype 3 mg/kg, • 2. Control isotype 3 mg/kg+Doxorubicin 2 mg/kg • 3. KNJY C1-831 3 mg/kg • 4. KNJY C1-831 3 mg/kg+Doxorubicin • 5. KNJY C1-787A 3 mg/kg • 6. KNJY C1-787A 3 mg/kg+Doxorubicin 2 mg/kg.
Doxorubicin is soluble in water. All test articles were dosed intraperitoneally twice a week for two consecutive weeks. Antibodies were dosed 4 hr prior to Doxorubicin.
Tumors were measured three times a week using a calibrated Vernier Caliper and tumor volume calculated as per the formula ½*L*S*S, where L is the long axis and S is the short axis of the tumor. Body weights were recorded before treatment started and were continuously monitored throughout the study. Animals were euthanized when turning moribund according to the above-mentioned predefined criteria rapid weight loss, loss of ability to ambulate, labored respiration, or inability to drink or feed to avoid animal suffering.

human ABCC1 [1] = target: T1, human ABCC1 (Homo sapiens, UniProt P33527); assay: Titration binding to human ABCC1-overexpressing rat C6 glioma cells (FACS); parameters: expressed in transfected cells
T1 sequence (P33527 whole entry): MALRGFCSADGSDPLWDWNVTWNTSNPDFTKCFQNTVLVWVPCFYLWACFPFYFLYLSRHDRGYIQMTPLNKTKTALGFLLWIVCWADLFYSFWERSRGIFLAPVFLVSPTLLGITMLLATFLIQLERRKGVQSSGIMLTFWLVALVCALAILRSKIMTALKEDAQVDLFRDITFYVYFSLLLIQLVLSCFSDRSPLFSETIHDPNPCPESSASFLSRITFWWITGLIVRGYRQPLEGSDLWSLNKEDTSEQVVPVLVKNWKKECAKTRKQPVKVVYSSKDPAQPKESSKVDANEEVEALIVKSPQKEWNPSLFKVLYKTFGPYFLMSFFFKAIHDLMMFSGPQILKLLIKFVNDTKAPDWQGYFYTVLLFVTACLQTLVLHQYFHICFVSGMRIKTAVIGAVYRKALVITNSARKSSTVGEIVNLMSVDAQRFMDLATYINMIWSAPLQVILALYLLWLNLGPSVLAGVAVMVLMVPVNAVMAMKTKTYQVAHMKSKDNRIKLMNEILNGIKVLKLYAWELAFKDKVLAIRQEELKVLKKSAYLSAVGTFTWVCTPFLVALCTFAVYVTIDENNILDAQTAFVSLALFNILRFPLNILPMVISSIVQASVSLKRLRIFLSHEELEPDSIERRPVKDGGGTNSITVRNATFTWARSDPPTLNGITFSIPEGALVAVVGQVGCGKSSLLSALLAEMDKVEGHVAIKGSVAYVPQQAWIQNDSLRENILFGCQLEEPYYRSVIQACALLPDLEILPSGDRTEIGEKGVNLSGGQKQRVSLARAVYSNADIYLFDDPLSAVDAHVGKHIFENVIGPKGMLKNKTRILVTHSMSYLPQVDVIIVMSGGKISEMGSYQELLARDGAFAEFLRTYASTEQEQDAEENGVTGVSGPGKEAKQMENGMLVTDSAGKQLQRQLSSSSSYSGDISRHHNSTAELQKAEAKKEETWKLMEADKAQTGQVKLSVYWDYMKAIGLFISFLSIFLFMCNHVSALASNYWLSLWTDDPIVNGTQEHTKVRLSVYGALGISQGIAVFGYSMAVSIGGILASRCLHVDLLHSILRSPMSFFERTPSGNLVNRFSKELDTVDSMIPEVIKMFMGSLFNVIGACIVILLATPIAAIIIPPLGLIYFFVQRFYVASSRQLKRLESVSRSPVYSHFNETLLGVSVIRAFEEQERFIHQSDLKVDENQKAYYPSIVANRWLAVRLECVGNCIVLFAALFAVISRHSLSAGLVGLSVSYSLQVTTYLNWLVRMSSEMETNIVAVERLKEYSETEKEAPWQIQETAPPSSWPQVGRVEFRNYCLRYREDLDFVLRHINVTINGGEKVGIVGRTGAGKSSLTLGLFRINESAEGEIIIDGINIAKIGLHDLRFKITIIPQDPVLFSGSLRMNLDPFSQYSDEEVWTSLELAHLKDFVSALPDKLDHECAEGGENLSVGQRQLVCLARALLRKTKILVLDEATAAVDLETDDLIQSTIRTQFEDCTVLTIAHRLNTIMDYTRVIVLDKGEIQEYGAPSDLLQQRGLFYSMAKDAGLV

cynomolgus ABCC1 [2] = target: T2, cynomolgus ABCC1 (Macaca fascicularis, UniProt Q864R9); assay: Titration binding to cynomolgus ABCC1-overexpressing rat C6 glioma cells (FACS); parameters: expressed in transfected cells
T2 sequence (Q864R9 whole entry): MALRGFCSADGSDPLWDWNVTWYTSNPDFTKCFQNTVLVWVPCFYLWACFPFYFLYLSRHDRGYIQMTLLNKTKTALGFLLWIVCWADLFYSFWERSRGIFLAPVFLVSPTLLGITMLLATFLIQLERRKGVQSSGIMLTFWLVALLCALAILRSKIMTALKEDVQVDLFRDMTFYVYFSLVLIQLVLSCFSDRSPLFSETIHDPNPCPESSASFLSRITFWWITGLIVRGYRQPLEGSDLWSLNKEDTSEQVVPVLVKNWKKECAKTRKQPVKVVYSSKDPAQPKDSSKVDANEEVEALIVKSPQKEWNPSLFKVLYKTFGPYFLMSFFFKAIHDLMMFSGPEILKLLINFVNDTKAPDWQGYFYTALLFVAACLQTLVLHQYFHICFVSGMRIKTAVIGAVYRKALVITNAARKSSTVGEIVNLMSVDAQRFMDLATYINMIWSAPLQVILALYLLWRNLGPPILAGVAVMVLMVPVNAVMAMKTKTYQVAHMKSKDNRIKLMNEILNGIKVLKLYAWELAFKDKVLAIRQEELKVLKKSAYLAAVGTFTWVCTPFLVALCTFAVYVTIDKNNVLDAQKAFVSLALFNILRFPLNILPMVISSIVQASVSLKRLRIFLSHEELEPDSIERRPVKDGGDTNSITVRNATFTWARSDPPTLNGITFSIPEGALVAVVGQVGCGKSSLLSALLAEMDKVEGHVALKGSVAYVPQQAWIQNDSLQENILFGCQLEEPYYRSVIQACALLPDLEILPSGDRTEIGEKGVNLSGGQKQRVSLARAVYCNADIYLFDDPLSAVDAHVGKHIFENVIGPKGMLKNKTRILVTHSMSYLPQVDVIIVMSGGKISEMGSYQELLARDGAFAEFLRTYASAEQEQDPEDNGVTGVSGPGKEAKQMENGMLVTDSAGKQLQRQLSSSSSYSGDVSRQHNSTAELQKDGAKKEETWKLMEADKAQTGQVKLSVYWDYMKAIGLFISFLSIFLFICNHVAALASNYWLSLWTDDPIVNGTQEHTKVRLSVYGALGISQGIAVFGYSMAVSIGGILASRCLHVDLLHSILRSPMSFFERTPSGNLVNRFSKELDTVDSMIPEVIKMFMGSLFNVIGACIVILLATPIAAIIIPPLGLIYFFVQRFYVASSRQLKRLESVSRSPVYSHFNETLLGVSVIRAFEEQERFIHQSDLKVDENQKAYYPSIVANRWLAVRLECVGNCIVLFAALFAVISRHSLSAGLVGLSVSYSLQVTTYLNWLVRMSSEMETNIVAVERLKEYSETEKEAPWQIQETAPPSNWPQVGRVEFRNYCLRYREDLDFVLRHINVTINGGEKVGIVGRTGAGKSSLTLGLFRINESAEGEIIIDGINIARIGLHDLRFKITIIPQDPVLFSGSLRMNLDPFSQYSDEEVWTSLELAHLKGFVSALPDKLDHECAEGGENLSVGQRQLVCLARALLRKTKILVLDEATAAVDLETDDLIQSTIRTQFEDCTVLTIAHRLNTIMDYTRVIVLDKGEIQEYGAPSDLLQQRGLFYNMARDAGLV

human ABCC1 [3] = target: T1, human ABCC1; assay: Titration binding assay of humanized antibodies (FIGS. 8A-8C), human ABCC1; parameters: expressed in transfected cells; host or cells: 293T (HEK 293T) cells; details: cell line not stated
Procedure: (§1) Binding titration of recombinant antibodies to KPC1 transfectants was performed by serial dilution of antibodies from about 666 nM, Diluted antibody in flow cytometry buffer was incubated with cells on ice for 30 min. After 2 washes with flow cytometry buffer, bound antibody was detected with PE-labeled F(ab′)2 fragment goat anti-human IgG (Jackson ImmunoResearch) diluted 1:200 in flow cytometry buffer and incubated with cells for 20 min on ice. After 2 washes with flow cytometry buffer fluorescence was measured on an Attune NxT flow cytometer. Data were analyzed with GraphPad Prism 8.0 software to determine EC50's.

human ABCC1 [4] = target: T1, human ABCC1; assay: ABCC1 efflux assay in HEK293T cells expressing human ABCC1; assay type: cell-based; parameters: expressed in transfected cells; host or cells: 293T (HEK 293T) cells; details: HEK293T cells expressing human ABCC1, Calcein AM fluorescence
Procedure: HEK 293T cells expressing human ABCC1 were washed several times and aliquoted into 96-well plates as 50 μl aliquots/well at a cell density of 1×10^6 cells per ml in phenol red-free DMEM. Cells were mixed with 50 μl antibodies and incubated for 1.5 h at 37° C. The cells were then washed twice and finally resuspended in […] PBS. Calcein AM fluorescence was measured by flow cytometry.

cynomolgus ABCC1 [5] = target: T2, cynomolgus ABCC1; assay: Titration binding assay of humanized antibodies (FIGS. 8A-8C), cynomolgus ABCC1; parameters: expressed in transfected cells; host or cells: 293T cells; details: cell line not stated
Procedure: as §1

| binding to human ABCC1 in the titration binding assay (human ABCC1 [3]) | binding to cynomolgus ABCC1 in the titration binding assay (cynomolgus ABCC1 [5]) | Molecule | binding to C6 cells overexpressing human ABCC1 (human ABCC1 [1]) | binding to C6 cells overexpressing cynomolgus ABCC1 (cynomolgus ABCC1 [2]) | inhibition of the efflux function of the ABCC1 transporter (human ABCC1 [4]) | further results |
| --- | --- | --- | --- | --- | --- | --- |
|  |  | C1.787a: anti-ABCC1 antibody, VH SEQ ID NO: 11, VL SEQ ID NO: 86 (antibody, listed as Rattus norvegicus, V domains shown) VH: EVQLTESGPGLVQPSQTLSLTCTVSGFSLTSNGVSWVRQPPGKGLEWIAAISSGGSTYYNSAFKSRLSISRHTSKSQVLLNMNSLQTEDTAMYFCARHRGYYWSNWGYFDYWGQGVMVTVSS VL: NIQLTQSPSLLSASVGDRVTLSCKGSQNINNYLAWYQQKLGEAPKLLIYKTNSLQTGIPSRFSGSGSGTDYTLTLSSLHSEDLATYYCCQYNDGYTFGAGTKLELK |  |  |  | effect of doxorubicin on the inhibition of tumor growth by the antibody (CT26 tumor): enhanced by doxorubicin; tumor growth in vivo (CT26 tumor): inhibit tumor growth |
|  |  | C1.851.hu12: humanized anti-ABCC1 antibody, VH SEQ ID NO: 27, VL SEQ ID NO: 105 (antibody, V domains shown, humanized sequence) VH: EVQLQESGPGLVKPSETLSLTCTVSGFSLTNNGVSWIRQPPGKGLEWIAAISSGGNIYYNSAFKSRLTISRDTSKNQVSLKLSSVTAADTAVYYCARHRGYYGYNWGYFDYWGQGTLVTVSS VL: DIQLTQSPSSLSASVGDRVTITCKGSQNINNYLAWYQQKPGKAPKLLIYKTNSLQTGIPSRFSGSGSGTDYTLTISSLQPEDFATYYCYQYNNGYTFGQGTKLEIK | retain the ability to bind both human and cynomolgus ABCC1 | retain the ability to bind both human and cynomolgus ABCC1 |  |  |
|  |  | C1.851.hu14: humanized anti-ABCC1 antibody, VH SEQ ID NO: 27, VL printed as SEQ ID NO: 76, LCDR3 SEQ ID NO: 148 (antibody, V domains shown, humanized sequence; Mus musculus or humanized sequence) VH: EVQLQESGPGLVKPSETLSLTCTVSGFSLTNNGVSWIRQPPGKGLEWIAAISSGGNIYYNSAFKSRLTISRDTSKNQVSLKLSSVTAADTAVYYCARHRGYYGYNWGYFDYWGQGTLVTVSS VL: DVVMTQTPLSLPVSLGDQASISCRSSQSIVHSNGNTYLEWYLQKPGQSPKLLIYKVSNRFSGVPDRFSGSGTGTDFTLKISRVEAEDLGVYYCFQGSHVPRTFGGGTKLEIK | retain the ability to bind both human and cynomolgus ABCC1 | retain the ability to bind both human and cynomolgus ABCC1 |  |  |
|  |  | C1.851.hu15: humanized anti-ABCC1 antibody, VH SEQ ID NO: 27, VL printed as SEQ ID NO: 77, LCDR3 SEQ ID NO: 149 (antibody, V domains shown, humanized sequence; Mus musculus or humanized sequence) VH: EVQLQESGPGLVKPSETLSLTCTVSGFSLTNNGVSWIRQPPGKGLEWIAAISSGGNIYYNSAFKSRLTISRDTSKNQVSLKLSSVTAADTAVYYCARHRGYYGYNWGYFDYWGQGTLVTVSS VL: DVVMTQAPSSLSASLGERISLTCRASQDIYGSLNWFQQKPDGTIKLLIYGTSSLDSGVPKRFSGSRSGSDYSLTISSLESEDFADYYCLQYASSPYTFGGGTKLEIK | retain the ability to bind both human and cynomolgus ABCC1 | retain the ability to bind both human and cynomolgus ABCC1 |  |  |
| bind both human and cynomolgus ABCC1 | bind both human and cynomolgus ABCC1 | C1.861.hu11: humanized anti-ABCC1 antibody, VH SEQ ID NO: 33, VL SEQ ID NO: 110 (antibody, V domains shown, humanized sequence) VH: EVQLQESGPGLVKPSETLSLTCTVSGFSLTSNGVTWVRQPPGKGLEWIAAISSGGNIYYNSAVKSRLTISRDTSKNQVSLKLSSVTAADTAVYYCTRARGTTTAYVMDAWGQGTTVTVSS VL: DVQLTQSPSSLSASVGDRVTITCKSSQSLLYSGNQKNYLAWYQQKPGKSPKLLIYWASTRQSGVPSRFSGSGSGTDFTLTISSLQPEDVATYYCQQYYDVLMNMFGGGTKLEIK |  |  | significantly inhibit the efflux function |  |
| bind both human and cynomolgus ABCC1 | bind both human and cynomolgus ABCC1 | C1.861.hu21: humanized anti-ABCC1 antibody, VH SEQ ID NO: 34, VL SEQ ID NO: 110 (antibody, V domains shown, humanized sequence) VH: EVQLVESGGGLIQPGGSLRLSCAVSGFSLTSNGVTWVRQPPGKGLEWIAAISSGGNIYYNSAVKSRLTISRDTSKNTVYLQMNSLRAEDTAVYFCTRARGTTTAYVMDAWGQGTTVTVSS VL: DVQLTQSPSSLSASVGDRVTITCKSSQSLLYSGNQKNYLAWYQQKPGKSPKLLIYWASTRQSGVPSRFSGSGSGTDFTLTISSLQPEDVATYYCQQYYDVLMNMFGGGTKLEIK |  |  | significantly inhibit the efflux function |  |
|  |  | C1.831: anti-ABCC1 antibody, VH SEQ ID NO: 16, VL SEQ ID NO: 90 (antibody, listed as Rattus norvegicus, V domains shown) VH: EVQLTESGPGLVQPSQTLSLTCTVSGFSLTSNGVSWVRQPPGKGLEWIAAISSGGNIYYNSVLKSRLSISRDTSKSQVFLKMSSVQTEDTAIYFCTRERGWNYPFITNGYYFDYWGQGVMVTVSS VL: EIMLTQSPSLLSASVGDRVTLSCKAGQNINNYLAWYQQKLGEAPKLLIYNANSLQTGIPSRFSGSGSGTDYTLTISSLQPEDVATYFCQQYNSWYTFGAGTKLEIK |  |  |  | effect of doxorubicin on the inhibition of tumor growth by the antibody (CT26 tumor): enhanced by doxorubicin; tumor growth in vivo (CT26 tumor): inhibit tumor growth |
| bind both human and cynomolgus ABCC1 | bind both human and cynomolgus ABCC1 | C1.831.hu11: humanized anti-ABCC1 antibody, VH SEQ ID NO: 29, VL SEQ ID NO: 108 (antibody, V domains shown, humanized sequence) VH: EVQLQESGPGLVKPSETLSLTCTVSGFSLTSNGVSWVRQPPGKGLEWIAAISSGGNIYYNSVLKSRLTISRDTSKNQVSLKLSSVTAADTAVYYCTRERGWNYPFITNGYYFDYWGQGTLVTVSS VL: DIQLTQSPSSLSASVGDRVTITCKAGQNINNYLAWYQQKPGKAPKLLIYNANSLQTGIPSRFSGSGSGTDYTLTISSLQPEDFATYYCQQYNSWYTFGQGTKLEIK |  |  | significantly inhibit the efflux function |  |
| bind both human and cynomolgus ABCC1 | bind both human and cynomolgus ABCC1 | C1.844.hu21: humanized anti-ABCC1 antibody, VH SEQ ID NO: 32, VL SEQ ID NO: 109 (antibody, V domains shown, humanized sequence) VH: EVQLVESGGGLIQPGGSLRLSCAVSGFSLTSNGVIWVRQPPGKGLEWIAAISSGGNIYYNSGLKSRLTISRDTSKNTVYLQMNSLRAEDTAVYYCTRARGTTTAYVMDAWGQGTLVTVSS VL: DIVMTQSPDSLAVSLGERATINCKSSQSLLYSVNQKNYLAWYQQKPGQSPKLLIYWASTRQSGVPDRFSGSGSGTDFTLTISSLQAEDVAVYYCQQYYDTLMKMFGAGTKLELK |  |  | significantly inhibit the efflux function |  |
